Laboratory results taken from patent US20230295275A1 (FLAGSHIP PIONEERING INNOVATIONS VI, published 2023).
Positions count from the first letter of the chain named.

B1: AB-1 full-length IgG1 (antibody, V domains shown)
VH: QMQLVQSGTEVKKPGESLKISCKGSGYGFITVWIGWVRQMPGKGLEWMGIIYPGDSETRYSPSFQGQVTISADKSINTAYLQWSSLKASDTAIYYCAGGSGISTPMDVWGQGTTVTVSS
VL: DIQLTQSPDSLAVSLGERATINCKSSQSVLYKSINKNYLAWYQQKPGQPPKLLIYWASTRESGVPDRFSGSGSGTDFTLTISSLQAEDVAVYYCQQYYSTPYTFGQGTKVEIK
B2: AB-3 full-length IgG1 (antibody, V domains shown)
VH: B1 VH with Y27S
VL: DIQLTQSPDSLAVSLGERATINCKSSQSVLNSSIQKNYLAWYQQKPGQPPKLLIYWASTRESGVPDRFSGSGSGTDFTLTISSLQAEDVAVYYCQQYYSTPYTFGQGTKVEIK
B3: AB-2 full-length IgG1 (antibody, V domains shown)
VH: B1 VH with Y27S, F29T
VL: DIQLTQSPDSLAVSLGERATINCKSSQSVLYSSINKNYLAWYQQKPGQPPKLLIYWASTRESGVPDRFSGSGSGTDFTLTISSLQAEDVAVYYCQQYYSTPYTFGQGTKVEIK
B4: AB-4 full-length IgG1 (antibody, V domains shown)
VH: B1 VH with Y27S, V32Y, S103H
VL: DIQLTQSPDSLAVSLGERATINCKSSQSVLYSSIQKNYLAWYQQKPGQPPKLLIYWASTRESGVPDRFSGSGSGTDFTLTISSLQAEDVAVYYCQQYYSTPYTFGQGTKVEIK
B5: AB-5 full-length IgG1 (antibody, V domains shown)
VH: B1 VH with Y27S, V32Y, S103Y
VL: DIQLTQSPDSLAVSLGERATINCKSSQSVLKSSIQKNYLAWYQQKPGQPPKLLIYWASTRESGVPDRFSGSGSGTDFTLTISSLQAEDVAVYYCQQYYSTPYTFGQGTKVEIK
B6: AB-6 full-length IgG1 (antibody, V domains shown)
VH: B1 VH with Y27S, F29L, S103Y
VL: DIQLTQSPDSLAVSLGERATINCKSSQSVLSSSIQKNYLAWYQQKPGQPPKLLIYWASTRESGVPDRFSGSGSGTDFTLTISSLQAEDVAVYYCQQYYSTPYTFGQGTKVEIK
B7: AB-7 full-length IgG1 (antibody, V domains shown)
VH: B1 VH with Y27S, V32Y, S103Y
VL: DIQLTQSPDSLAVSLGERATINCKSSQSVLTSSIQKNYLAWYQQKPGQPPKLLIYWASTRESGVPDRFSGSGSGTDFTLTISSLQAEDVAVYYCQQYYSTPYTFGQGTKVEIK
B8: AB-8 IgG1 (antibody, V domains shown)
VH: B1 VH with Q1E, M2V, T9A, Y27S, S61N, P62Q, Q65K, N77S, I93M, T114M
VL: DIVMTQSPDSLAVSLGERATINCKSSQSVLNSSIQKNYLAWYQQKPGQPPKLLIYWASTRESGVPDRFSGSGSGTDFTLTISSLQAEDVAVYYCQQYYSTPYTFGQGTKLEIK
B9: AB-11 IgG1 (antibody, V domains shown)
VH: B1 VH with Q1E, M2V, T9A, Y27S, Q65E, N77S, I93M
VL: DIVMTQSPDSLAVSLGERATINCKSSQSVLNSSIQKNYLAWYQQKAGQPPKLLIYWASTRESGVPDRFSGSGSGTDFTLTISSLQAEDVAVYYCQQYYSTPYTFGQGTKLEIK
B10: AB-10 IgG1 (antibody, V domains shown)
VH: B1 VH with Q1E, M2V, T9A, E16G, Y27S, N77S, I93M
VL: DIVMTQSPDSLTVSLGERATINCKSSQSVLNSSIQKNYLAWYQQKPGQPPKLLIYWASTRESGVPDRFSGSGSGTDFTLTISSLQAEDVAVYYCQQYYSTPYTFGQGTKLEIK
B11: AB-13 IgG1 (antibody, V domains shown)
VH: B1 VH with Q1E, M2V, T9A, Y27S, I70L, N77S, I93M, Q111K
VL: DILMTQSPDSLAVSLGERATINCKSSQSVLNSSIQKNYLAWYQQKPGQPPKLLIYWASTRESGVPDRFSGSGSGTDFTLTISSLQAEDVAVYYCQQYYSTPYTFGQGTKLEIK
B12: AB-12 IgG1 (antibody, V domains shown)
VH: B1 VH with Q1E, M2V, T9A, Y27S, G35S, N77S, I93M
VL: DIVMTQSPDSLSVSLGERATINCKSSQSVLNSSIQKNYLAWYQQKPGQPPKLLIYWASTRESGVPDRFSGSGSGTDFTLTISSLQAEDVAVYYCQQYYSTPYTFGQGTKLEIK
B13: AB-9 IgG1 (antibody, V domains shown)
VH: B1 VH with Q1E, M2V, T9A, K23Q, Y27S, N77S, I93M
VL: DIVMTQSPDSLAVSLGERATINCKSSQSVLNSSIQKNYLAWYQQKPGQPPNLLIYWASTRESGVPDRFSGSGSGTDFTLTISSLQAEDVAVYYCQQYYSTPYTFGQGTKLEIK

Each binder was assayed against T1, SARS-CoV-2 receptor binding domain (RBD) (SARS-CoV-2, UniProt P0DTC2 319-527) (assay: BLI (Octet Red96e), IgG on AHC biosensors, RBD in solution).
For B1, the Kd was 9.5 nM, the koff was 0.0091 s⁻¹ and the kon was 960000 M⁻¹ s⁻¹.

What follows are binders tested against SARS-CoV-2-Spike (wildtype, on virus) (SARS-CoV-2, UniProt P0DTC2 14-1273) (assay: cell-based or functional assay).
For B1, the “Neutralization (ng/mL), Authentic Virus IC50” value was 14200 ng/mL, the “Neutralization (ng/mL), Authentic Virus IC80” value was 25000 ng/mL and the “Neutralization (ng/mL), Pseudovirus IC50” value was 142 ng/mL. In the case of B2, the “Neutralization (ng/mL), Authentic Virus IC50” value is reported as 25000 ng/mL and the “Neutralization (ng/mL), Authentic Virus IC80” value is reported as 25000 ng/mL. For B3, the “Neutralization (ng/mL), Authentic Virus IC50” value was 25000 ng/mL, the “Neutralization (ng/mL), Authentic Virus IC80” value was 25000 ng/mL and the “Neutralization (ng/mL), Pseudovirus IC50” value was 324 ng/mL. For B4, the “Neutralization (ng/mL), Pseudovirus IC50” value was 86.5 ng/mL.

Each binder was assayed against T1, SARS-CoV-2 receptor binding domain (RBD) (assay: BLI (Octet Red96e), IgG1 on AHC biosensors, RBD in solution).
For B1, the Kd was 3.3 nM, the Req was 0.98 nm shift and the Response was 1.06 nm. For the same binder, the kobs was 0.023 s⁻¹, the koff was 0.00074 s⁻¹ and the kon was 220000 M⁻¹ s⁻¹. Binder B5 has a Kd of 0.3 nM, a Req of 1.8 nm shift and a Response of 1.84 nm. The kobs was 0.012 s⁻¹, the koff was 3.6e-05 s⁻¹ and the kon was 120000 M⁻¹ s⁻¹. B6 was tested, and the Kd was 0.96 nM, the Req was 0.48 nm shift and the Response was 0.485 nm. The kobs was 0.031 s⁻¹, the koff was 0.00029 s⁻¹ and the kon was 300000 M⁻¹ s⁻¹. For B7, the Kd was 1.5 nM, the Req was 0.55 nm shift and the Response was 0.591 nm. It also gave a kobs of 0.024 s⁻¹, a koff of 0.00036 s⁻¹ and a kon of 230000 M⁻¹ s⁻¹. In the case of B2, the Kd is reported as 4.5 nM, the Req is reported as 1.3 nm shift and the Response is reported as 1.42 nm. The kobs was 0.022 s⁻¹, the koff was 0.00096 s⁻¹ and the kon was 210000 M⁻¹ s⁻¹.

The binders below were run against T1, SARS-CoV-2 receptor binding domain (RBD) (assay: BLI (Octet), IgG on anti-human Fc biosensors, RBD in solution).
B1 was tested, and the Kd was 9.5 nM.

Each binder was assayed against T1, SARS-CoV-2 receptor binding domain (RBD) (assay: DELFIA, RBD coated on plate, IgG1 in solution).
B8: binds. B9: binds. B10: binds. B11: binds. B12: binds. B13: binds.

What follows are binders tested against T1, SARS-CoV-2 receptor binding domain (RBD) (assay: not given).
For B1, the Kd was 14.6 nM. Work on B2 yielded a Kd of 38.8 nM. B3 showed a Kd of 84.9 nM. Work on B4 yielded a Kd of 36.1 nM.
